From the DeepSol protein solubility set

Test: soluble on expression in E. coli; label from the status in PepcDB or PDB records

Row | Sequence | soluble on expression in E. coli
1 | MNTNHYYIRYGCAITLYDNHVSERERLTPKELRFSIEKAVSSFRIQAQEPFSPGSKARFSFVKRKDGNTKNGIFLSPHIVTKDMHAQKVWTKASKFLEIDYLGKDNEREGLLKKDNVSMSNIPISGEYLTFGEKDTGRGSAKISVEEQTYGLITTLTPLKPALQVGKDNFCIIPDIPLNQMVDFIALFDKMQITHLSGEAMLGNIDNKGIPHRPKIFRGNFPNSPKSDRMGAIALLGAIGEFAKHAEFSTLAQKVLDSLKGST | not soluble
2 | MNTNREPRFHDKVQAACYALMLDEHGVPADTGTLLYTKNAAVDRSEASGDLSPAKEFSIGRGFLEFVVRERNHLAALEASDGPPTGYEADAKCDYCFEQDTCMVVSGRLDQESKAGRIGDPVPAEERAYFDELYDAIEAERGAIHDEYRKLWEQSPDERAADDRAVVGLSPAEQTELPDGRWRLTATRPGSAASKIREGDRVLASDGDPVAGRAEMARVERLDADRVEVTTDEPVSLCRLDVYPSELEHHHHHH | soluble
3 | MNTQNYTYSTTGYQPSQPSGGQQSYNETRQYSSNATSNYPSQTQQYQQQQHQYQSDHSNAQRLLNSGYNTNQVDYVLGHKDKYNEGPHYQPPIINSSATAANNSSSSTHHYNSSSQAIPLGGPNQGHSSSSYTTETRVTGGGTGAPVSNNYSNQNYSSSAYNSQSSQHQTKSIPVQNYQISFPPLSVSTPAFGTSFFENSQKSFQESSEKFHRDLASPLSRTIPVQSAGHFSEVSKYFNSEEEENYQVSQPAIPLPSADQVYEVSSNYNKSYSSQTTTQHQPQPVAANNNYSTSYHTERSSTTTAQQPQTIALPPPQNNSSHTETHSSTGPIMMHSPGGHSMKSTEFSSSRHHKQETTTTTTTTPQPPVFQTTTYPTTKTTSYNYSSSTIPSQPAKPSFNQESYTTHTERNNSSQGFPQQRLQPSGGYSYENYSSSRKEENRREETSRPVSQLSQYSESRNYKRNYEEKTETTTVPSLAPATNVTYKDLSNAQCVDDVFNKKTEMNESLPVGSVFNTHNNTEGGYRDANGHDVSYKRETQTSADPGRETALLKEEEKRVVETPLEPGVISRHVTTKYYKKKTVTDTTTTTA | not soluble
4 | MNTVCTHCQAINRIPDDRLQDAAKCGRCGHELFDGEVINATGETLDKLLKDDLPVVIDFWAPWCGPCRNFAPIFEDVAEERSGKVRFVKVNTEAERELSARFGIRSIPTIMIFKHGQVVDMLNGAVPKAPFDSWLNEAL | not soluble
5 | MNVAIIGATGYSGAELFRLLHGHPHVSRCDVFSSSQDGVHVSESFPHVGSVDGAVLHKLEIEALSRYDAVFFATPPGVSGEWAPALVDRGVKVIDLSGDFRLKDGAVYEQWYGRQTAPAEYLQKAVYGLTEWNREAVREAVLLSNPGCYPTATLLGLAPLVKEGLIKEDSIIVDAKSGVSGAGRKAGLGTHFSEVNENVKIYKVNVHQHIPEIEQTLQTWNEAMEPITFSTHLIPMTRGIMATIYAKAKQSISPNDLVDLYKTSYEGSPFVRIRQLGQFPATKEVYGSNYCDIGLAYDERTGRVTVVSVIDNLMKGAAGQAVQNFNLMMGWDEAEGLQSLPIYP | not soluble
6 | MNVFQMRDKLKARLKHLDVEFKFDREEETLRIVRIDNHKGVTIKLNAIVAKYEEQKEKIIDEICYYVEEAIAQMGDEVINNVEDIQIMPVIRATSFDKETKEGHAFVLTEHTAETNIYYALDLGKSYRLIDENMLQTLNLTAQQVKEMSLFNVRKLECRYSTDEVKGNIFYFINTNDGYDASRILNTSFLNHIQHQCEGEMLVGVPHQDVLILADIRNKTGYDVMAHLTMEFFTKGLVPITSLSFGYDNGHLEPIFILGKNNKQK | not soluble
7 | MNVGLSAEVRYHWFREHLVVVGDWHRLSPSERDRLRHQPMPDEAAQSLRVDLSPWSCGMVFSELLGADLTRFGLCYLAPAEVPASDLTRLGRRLREEFPLLDSQVDSGAEGFELVVHGQPEESPALEVGPFADENALIAALLQRPHSLFERGLLRLFHGRCGGRARWGVWLHHLVADADFASVLLARLAVLNADPTTEAAAPEFGFLQQQWRLERQLRERRTRLEDYWSERGEAFRELASLPWAERASHCEDFRLAATPGGGEAALLTRLACALALALASQGATGKVLALTPVSLRSRRGTAVSGCWLNLVPLLLDAATAEDTFERHRLEAFEHSLLPAEAIAERAGLRYADAQVMINVIDQPFHSAGFIHRPTLKSRLPLTLTLVRRDDGGWDASLASRFGRERTLALAAAMAEALRPC | not soluble
8 | MNVLKEVYATIEKRIEEKPEGSYVAKLTTDDKKTAVNKICEKVGEEAAEVIIAAKDNDKAEIIYESADLIFHTMVLLAKSGITYEELSEEFKKRMKLEHHHHHH | not soluble
9 | MNVLSPHIALYRLFDVADEIDLGRLSTPRLRLSRARLGAVRFENPPGEMELGVRNVEGLSGLLTARLYEFGVVSLSFRIHLGERVPWEAFLEKGLRIPELPFWEGFFLAELAALEPHLRGALLRPEEKRLSEEFVVYHALGLEGEKAFRPSVDLTPLWMGAEEEFAPEVRREVERYRYSYSTEDLALLGFDRVLILDSEGIWDVADLVEFVHAQLLELSYYDRVLTEELELVPQVLRHRGLWGYGRLQRLRRRLMARHAEIADVKARMEGALRITEDLFYAKIYRAALELYGAYELEKSVEEKLRVLEATYEMVTEEVAHLRTQAVEVAILALIAFEVVRALH | soluble
10 | MNVMRHSWLAVAGIAGLLAFPPVDACTLWGAAGTASMEGSLLAKNRDWKPDHAQSLRLLHPEHGYAYLGLYADNGSEPGIKAGVNQKGLAVVAAEASSLPRALRADSARHGVLTRLLRDYGSLDEVASAADKLFAQARPVFLLLADAGGLMQVEIGQHGRYRLIRQQSGTLAHTNHYADTSLLDGAQTIGPSSQARLERIRFLLDQHPAHTLSEFERLSRDRHDGPDNSLWRSGREHTLAGWRIALPAGAPPRLQLTLANPGRAERDGDYALDSAFWAQPARTLLPKLAAALEHHHHHH | soluble
11 | MNVSVVIPALNEEATVADVVALSRRGSDEVIVIDSDSTDATAARAKAAGASVVNWRDVVSLPPIPGKGEALWRGVAAARGDVVVFLDADLTEISPTIVEDLARPFIDDSVMLAKAAYTRGDASGGGGRVTELTARPLLEAFFPELGFVRQPLGGEYAIRRSAALDLPFVGGYGVEVGLLIDVFRCFGAASIVEVEAGHRGHRHRPLRELAPMARVVASTILQRAGVASGLDGVGQRPAISSLESGVGKV | not soluble
12 | MNVTSGMDQILAQLKATSDLAAGGSKPSATVSTVSQADFGQLLKSAVDQVNTVQQTASQLSREFVGGNQDVELHDVMISLQKANVSFQSMIQVRNRLVTAYQEIMNMQV | not soluble
13 | MNVVNNSRDVIYSSGIVFGTSGARGLVKDFTPQVCAAFTVSFVAVMQEHFSFDTVALAIDNRPSSYGMAQACAAALADKGVNCIFYGVVPTPALAFQSMSDNMPAIMVTGSHIPFERNGLKFYRPDGEITKHDEAAILSVEDTCSHLELKELIVSEMAAVNYISRYTSLFSTPFLKNKRIGIYEHSSAGRDLYKPLFIALGAEVVSLGRSDNFVPIDTEAVSKEDREKARSWAKEFDLDAIFSTDGDGDRPLIADEAGEWLRGDILGLLCSLALDAEAVAIPVSCNSIISSGRFFKHVKLTKIGSPYVIEAFNELSRSYSRIVGFEANGGFLLGSDICINEQNLHALPTRDAVLPAIMLLYKSRNTSISALVNELPTRYTHSDRLQGITTDKSQSLISMGRENLSNLLSYIGLENEGAISTDMTDGMRITLRDGCIVHLRASGNAPELRCYAEANLLNRAQDLVNTTLANIKKRCLL | not soluble
14 | MNYGFVKVAAAVPHVKVADCKFNVERIESQIAIAEGKGVQIIVFPEMSITGYTCGDLFGQQILLEEAEMGLMQILNNTRQLDIISIVGMPVVVNSTVINAAVVIQKGKVLGVAAKTYLPNYKEFYEQRWFTSALQLTEDTVRLCGQIVPIGANLLFETSDTTFGIEICEDLWATIPPSSSLALQGAEIIFNMSADNEGIGKHHYLCSLISQQSARCIAGYVFSSCGFGESTTDVVFAGNGLIYENGSLLARSKRFCMEEQLIISEIDVERIRAERRINTTFAASQGNPGDKKAISVATEFVNSKELTLTRDFNSHPFVPQGAELDEHCEEVFSIQIAGLAQRLVHTKAKTAVVGISGGLDSTLALLVCVKTFDKLGLPRKDILGVTMPGFGTTDRTYNNAIDLMKSLGISIREISIQDACIQHFKDIDHDINVHDVTYENSQARERTQILMDIANQTWGMVVGTGDLSELALGWATYNGDHMSMYGVNGSIPKTLVKYLVQWVAENDMDEDAKATLLDIVDTPISPELIPADENLEHHHHHH | soluble
15 | MPADPRNAGKDKGNLQMELQNLLTSARIRKMEYEAIVEELEEDELKYDLFEYQDYLENYIMPYVERAYKNGSKELIGMAEEVKSIFEEIIDMIKARIEKK | not soluble
16 | MPAGTRCVTQGEAEKNGMIPTGIFCDYQNGQEMYCYSEGKPDLVISDVWAYNTTPGVYSELRALVYNHGHGYAGKFSVAFFIDGSYVGEVEVNGLGANENTVARISYPHPCEGETDTFAAQVDYHNEVDEENENDNYHESPRIFQCSGGEMPNLEVVEAYIDYQDFCRALNYRNSSIVVVVANTGEQASPQTGGWIYIDGNSRGGFDIPSLQPGEETTISMNFPYMCEGSSDEIRVVVDSRNYVVESNENDNEYTFITDCIPMPSGTADLVVSYLETHVVEELLAGGLSYPLKSEINYTVENLGEDYSCNAEVGLFIDGVFQGQQYLPPLAPGDSITRTFIAKYDWERCSGISDTLTLKADVNNDVAESNENNNERSVTLYCIEYPLIKPDLTVEDVWIEGEGASNLDIVFTVKNIGLAASRATNAYVGVNYNPAGSTPIPPLNAGESVELRISGFTAQWQENTIEVCADSGNLVDEIPNEMNNCLTKTITIEDVGCYDGVRNRDEVGVDCGGYYCVPAALLRLKGDCSIRMTMAAGFQLEHHHHHH | not soluble
17 | MPAHQLSDDRAIQGTFMRKRRDSLASVVARDLAGRIERGDYAVGDKIPIEAQLCEMYNVSRTVVREAIATLRSEGLVTSRHGVGVFVEERGNPALSITREAAGELSEVLELLELRLGVEVEAAGLAARRATAEDLRQIREVLEKTDDLEAFAEHRRELDYAFHLAIARASGNSWMPKFMDFIGPVIIPRSQLLHDPQSGITGDYLRQMVEEHRQIVEAIAAGEAAAAQEAMRMHLSTSLERYRRRLTDA | not soluble
18 | MPAPDLGFALSLPPKKAIEWLESKKVTAESYRNLTASEIAKVYTIARMTDLDMLNDIKTSMVESAKSGQSFDDWRKGILNLLSNKGWLHPNGHNGKDIIDPATGEVFGSPRRLETIYRTNMQTAYNAGQYQGYMANIDARPYWMYDAVGDSRTRPAHSAIDGLVYRYDDPFWATFYPPNGYNCRCSVIALSERDVERQGRIVGQSTADNLVETHKIYNKKGDTYLTLAYKAPDGSLYTTDRGFDYNAGRMNYRPDLDKYDRALAHQFAKAEMGGADFKTSFKQLEKEFYEVKQRLDIDGKPDKEQKIKIRNALSRQLKFAAGVLSKETQELAGMTRATVWLSDDTLVKQVDSREGQNFDDSYYAFLPDMLQNPEHVIRDNRELIFTARYKGSALWAVLKYIKEVDEIYLQSYRISNDKEIAKFMAKKKVLK | not soluble
19 | MPAPQVMPAKVAPLPTSFRGTSVDGSFSVDASGNLLITRDIRNLFDYFLSAVGEEPLQQSLDRLRAYIAAELQEPARGQALALMQQYIDYKKELVLLERDLPRLADLDALRQREAAVKALRARIFSNEAHVAFFADEETYNQFTLERLAIRQDGKLSAEEKAAAIDRLRASLPEDQQESVLPQLQSELQQQTAALQAAGAGPEAIRQMRQQLVGAEATTRLEQLDRQRSAWKGRLDDYFAEKSRIEGNTGLSEADRRAAVERLAEERFSEQERLRLGALEQMRQAEQR | not soluble
